The values that follow come from a protein production outcome set (Wang et al. 2014).

A short description of this series: label from the status in PepcDB records.
On to “MRHLGLRNVISKLPAKINAAREFATSALVLIVFFGLLLILGRQFFRDSVVLEPISVPLHLEESGLNGGVAAQWLIDSIRTIQRNAASTKETKAIQATPKQINIEMPGVGFSLATIEQIIREALALPSPFIKGEIIKLGDSYQIRLRLPGAPYIHIEQPLGDKDVEKLIAKSAEKILLLKDPYIVAVDYYRKAEYKKAIEVINNMQPGADRLQSAYNELLLAAIATKQLEHEKASLHLKKADQLAPNLGVVKLNQAIQHALKKDPSTALSKYKEAKQLNLELQDDAFHSQILTELGRELVTDDSAEEKLALFRKAIDLAPENASAIIRLAEVLAHRQRPEENNEMLKLYEAAIGLVPNKPKYHFQYGKTLWEMGNKDKGCVQVKKAVELKPAMRVLANKYQCSK”, for which the protein production result is reported as “failed”.
Take “MRHTLPIAPQFYVTAPQSCPYLEGRLERKLFTALQGEHAQKLNDTLSKQGFRRSQNVLYRPSCAECSACLSARIRVADFEPTRTQRRVMKRNADLRRNATSPWATEDQYALFRRYLDDRHADGGMADMDIFEFAAMIEETPIRSRVIEYSRPGDTPSNRPLSAVCLTDIFDDGLSMVYSFYDPDLAGRSLGAYVILDHIEIAREAGLPYVYLGYWVPGSRKMGYKATYSALEIYKGGRWQAIGQPSDHRAELHPLSVDPIAEQVARISLPEARSGDRSRDLEHHHHHH”: the protein production result is on record as “not failed”.
For the sequence “MRIDIVTIFPACLDPLRQSLPGKAIESGLVDLNVHDLRRWTHDVHHSVDDAPYGGGPGMVMKAPVWGEALDEICSSETLLIVPTPAGVLFTQATAQRWTTESHLVFACGRYEGIDQRVVQDAARRMRVEEVSIGDYVLPGGESAAVVMVEAVLRLLAGVLGNPASHQDDSHSTGLDGLLEGPSYTRPASWRGLDVPEVLLSGDHARIAAWRREVSLQRTRERRPDLSHPD”, the protein production entry is recorded as “failed”.
On to “MRIFFLIFLLAYVGGNVYIFIRTLQMLSGFSLAMKILLSVIYWLVAFSLVIAMLTRHIDMPVILSKSMFHIGSVWLVFTLYMIFALLIADVTKIFVPSLNHGFYYALGATCCLLLYGYYNYRHPQVNKIDVSLDKPIEGNGINIVAVSDVHLGYGTGKAMLKEYVDMINAQHPDLILIGGDLIDNSLTPLYKENMAEELAQLKAPLGIYMVPGNHEYISGIDESVRFLKDTPIQLLRDSVVTLPNGVQIIGRDDRSNRSRHSLPTLLKQADRSKPIILLDHQPYNLAKTDSLGIDLQFSGHTHHGQIWPISWVTDRIYEQSHGYRKWSQSHIYVSSGLSLWGPPFRIGTNSDMAVFHLNQMAK”, for which the protein production result was “not failed”.
Under “MRIGHGFDVHKFGENGSGPLIIGGVRIPYEKGLLAHSDGDVALHAATDALLGAAALGDIGKLFPDTDPAFKGADSRGLLREAYRRILAKGYKLGNLDITIIAQAPKMAPHIPQMRVNLAEDLQCHMDDINVKATTTEQLGFTGRGEGIACEAVVLLVNVEQG” stands “not failed”.
Turning to “MRIGVIGTGTIATAVVHGIAGDGHAITVSERSAANAQALAAAYPNVRVASNQVVVEECDILTLGLMAEQAPEILGPLPFRADQQVITLMAGATLEQVAQMVAPARAAAIMMPFPSIAQGGSPIMMQGDADLVAALFGARNRIFAVRDAAEMAAYLCAQAVLSPVARMVDDAAGWLATRVSDPVQGEAFLRALVASSLADTDSASLIEALNTPGGYNQRLRLHMEGAGMGDSLRAGLDALETGA”, the protein production result is reported as “failed”.
As for “MRIIIVGGGKVGYQVARQCAAWGCDVVLVENDRQKGEKIKGELGLQVVIGDGTKAHFLKKAGAEEADIVVAVTDDDQDNLVICQLAERQFKAKRTLALVNNPGNEKLFRWLGVNQVIGPASLILGLIQERVDMDSTAAMWMQGIKDLKMIQFKLGPEAPVLGRKIKTIPFPNECILVTVVRENTAIVPCGNTVLEEGDLVFALANPAVQAELERVLTGKNDN”, the entry is “failed”; as for “MRILAFPYTHTLSHLSRVLAVALELRRMGHEVVFAGESAKVSFVSQQGFDVVPIHEPDPEMLFGNIRSGKLRFVEDAELLQMLTADIEVIRSLKPDLVLSDGRFSAPLSTHLTNVRHAAIVNASSTEYRALPYVPFFDWMPPWLISRDAMIWKALVRLNLFLEMKLFDNVMKVFKRLSRELNTNRTVTATNCLTGKDITLLADIPEYFPSRNLPASYHYVGPLTWKSVLAPPAWWPLDIPSSPLVYVTMGTTGVSEFFSKLGPSLSTSFFSSIVTTGGQSSELKPMPGKVYVESYLDGDLVMERSDVVICHGGNGTIYQALSHGKPVIGIPTIPDQKFNMRRVEAMGFGKSLDLKQFLEKPSLLADTVKQVLSDHSFRNSAQKIQAVLKSYNAATTSAKILIDSILLEHHHHHH”, “failed”; as for “MRILILGMGGTIASVKGERGYESALSVSKILKLAGISSEAKIEARDLMNVDSTLIQPSDWERLAKEIEKEVWEYDGIVITHGTDTMAYSASMLSFMLRNPPIPIVLTGSMLPITEKNSDAPFNLRTALEFVKLGIRGIYIAFNGKVMLGVRASKIRSMGFDAFESINYPNVAEIKDDKLRILHIPDFYGDEFFSDIKYEPKVLVIKLIPGLSGDIVREALRLGYKGIILEGYGVGGIPYRGTDLFEVVSSISKRIPVVLTTQAIYDGVDLQRYKVGRIALEAGVIPAGDMTKEATITKLMWILGHTKNIEEVKQLMGKNITGELTRVS”, “not failed”.
“MRILLVSRPHPEGARDPFTSLLPTGLGYLNAVLRENGFTSSLANLSTASWRQVEELLRRERPAILGISVFTHNRFESLRLAALAKKVDPTCLTIFGGPHATHAFESILVKYREVDGVILGEGEETFLDLARAVERGDRSLTGIVGLAYRKGAKVHSVKRPPVADLDVLPLPALHMNDAWGCDVRRQLEFIITSRGCPAACRFCSSPRFWGKSLRFRSPRAMVDEIRAIRDRYGLIYFSLRDDTFTVRKDRVIDFCRLLLEEKVHILWNCQSRVNAVDEEMLIWMRRAGCECVQYGVESGSEKILAYLGKQITPEQVRRAAKATRRAGISLSIYLISGVPGETDDDLQATLTLISNILPHDGHVAPLAYYPGTALFDEAVREGRVGADLFERERGAALYVRRDPFVARSMETLLRALTRVERKARFGPADFTAQREFLGYCHGTNLGQGEWLEAKGDIGKAEALYREIVERQPENPWGWLALGGLHGSRGDVTRAGKAFERAISLVPAHVPAYLALGDLRLEEGDQRGAKQLYETAKRLNPRDTDVGERLRMVVAERGTKKGDT”: the protein production result is “failed”.
Take “MRINPGEITKVLEEKIKSFEEKIDLEDTGKVIQVGDGIARAYGLNKVMVSELVEFVETGVKGVAFNLEEDNVGIIILGEYKDIKEGHTVRRLKRIIEVPVGEELLGRVVNPLGEPLDGKGPINAKNFRPIEIKAPGVIYRKPVDTPLQTGIKAIDSMIPIGRGQRELIIGDRQTGKTAIAIDTIINQKGQGVYCIYVAIGQKKSAIARIIDKLRQYGAMEYTTVVVASASDPASLQYIAPYAGCAMGEYFAYSGRDALVVYDDLSKHAVAYRQLSLLMRRPPGREAYPGDIFYLHSRLLERAVRLNDKLGGGSLTALPIVETQANDISAYIPTNVISITDGQIYLEPGLFYAGQRPAINVGLSVSRVGGSAQIKAMKQVAGMLRIDLAQYRELETFAQFATELDPATRAQIIRGQRLMELLKQEQYSPMPVEEQVVVLFAGVRGYLDDLPVEEVRRFEKEFLRFMHEKHQDILDDIKTKKELTSETEEKLKKAIEEFKTTFRV”: the protein production result is reported as “not failed”.
Under “MRISAWLLCSLSFIAPLSWAESSPADIAAQKQQQILFFNHDDRDIVPDTAVWPWQAIGQLETASGNLCTATLISPHLALTAGHCVVTPPKGEIDNPVALRFLATENGWRYETTEIEALANKTLAKKLKADGEGWIVPPSAAPLDYALIRLKQTPPGIRPLPLWQGSRQELMQALKDNGQRVTQAGYPEDHQETLYRHQDCLITGWVHAAVMAHQCDTLPGDSGSPLMLNSAAGWVLMGIQSSAPDASERDRADNRAVSVTAIRQQLETLAKLSSPKPGSPKLSPK” stands “failed”; under “MRITSTANPRIKELARLLERKHRDSQRRFLIEGAREIERALQAGIELEQALVWEGGLNPEEQQVYAALGRVGRLALLEVSEAVLKKLSVRDNPAGLIALARMPERTLEEYRPSPDALILVAVGLEKPGNLGAVLRSADAAGAEAVLVAGGVDLYSPQVIRNSTGVVFSLRTLAASESEVLDWIKQHNLPLVATTPHAEALYWEANLRPPVAIAVGPEHEGLRAAWLEAAQTQVRIPMQGQADSLNVSVSAALLLYEALRQRLLRDRLTKTHSTL”, “not failed”.
Under “MRIVAPVMPRHFDEAQAIDISKYEDVNLIEWRADFLPKDEIVAVAPAIFEKFAGKEIIFTLRTVQEGGNITLSSQEYVDIIKEINAIYNPDYIDFEYFTHKSVFQEMLDFPNLILSYHNFEETPENLMEAFSEMTKLAPRVVKIAVMPQSEQDVLDLMNYTRGFKTLNPEQEFATISMGKLGRLSRFAGDVIGSSWTYVSLDHVSGPGQVTLNDMKRIIEVLEMDISN” stands “not failed”; under “MRIVPFGAAREVTGSAHLLLAGGRRVLLDCGMFQGKEEARNHAPFGFDPKEVDAVLLTHAHLDHVGRLPKLFREGYRGPVYATRATVLLMEIVLEDALKVMDEPFFGPEDVEEALGHLRPLEYGEWLRLGALSLAFGQAGHLPGSAFVVAQGEGRTLVYSGDLGNREKDVLPDPSLPPLADLVLAEGTYGDRPHRPYRETVREFLEILEKTLSQGGKVLIPTFAVERAQEILYVLYTHGHRLPRAPIYLDSPMAGRVLSLYPRLVRYFSEEVQAHFLQGKNPFRPAGLEVVEHTEASKALNRAPGPMVVLAGSGMLAGGRILHHLKHGLSDPRNALVFVGYQPQGGLGAEIIARPPAVRILGEEVPLRASVHTLGGFSGHAGQDELLDWLQGEPRVVLVHGEEEKLLALGKLLALRGQEVSLARFGEGVPV”, “not failed”; under “MRKIFLACPYSHADAEVVEQRFRACNEVAATIVRAGHVVFSQVSMSHPINLCLAELDRAAIGRLWAPVDAFYMDHLEELIVLDLPGWRDSAGIRREMEFFEAGGQRVSLWSEVEHEFR”, “not failed”.
As for “MRKIVLFGDSITAGYLDEAVSPVLVDLVKRDIAAMGLEEVAVINAGMPGDTTEDGLKRLNKEVLIEKPDEVVIFFGANDASLDRNITVATFRENLETMIHEIGSEKVILITPPYADSGRRPERPQTRIKELVKVAQEVGAAHNLPVIDLYKAMTVYPGTDEFLQADGLHFSQVGYELLGALIVREIKGRLKPKQA”, the protein production result is on record as “not failed”.
Under “MRKLDRVDMQLVKILSENSRLTYRELADILNTTRQRIARRIDKLKKLGIIRKFTIIPDIDKLGYMYAIVLIKSKVPSDADKVISEISDIEYVKSVEKGVGRYNIIVRLLLPKDIKDAENLISEFLQRIKNAENVEVILISEVRKFEII” stands “not failed”; under “MRKLFIPLLLFSALEANEKNGFFIEAGFETGLLEGTQTQEKRHTTTKNTYATYNYLPTDTILKRAANLFTNAEAISKLKFSSLSPVRVLYMYNGQLTIENFLPYNLSNVKLSFTDAQGNVIDLGVIETIPKHSKIVLPGEAFDSLKIDPYTLFLPKIEATSTSVSDANTQRVFETLNKIKTDLVVNYRNENKFKDHENHWEAFTPQTAEEFTNLMLNMIAVLDSQSWGDAILNAPFEFTNKDGGEECDTSKENECVNPGTNGRVNSKVDQQYVLNKQDIVNKFRNKADLDVVILKDSGVVGLGSDITPSNNDDGKHYGQLGVVASALDPKKLFGDNLKTINLEDLRTILHEFSHTKGYTHNGNMTYQRVPVMKDGQVEKDSNGKPKDSDGLPYNVCSLYGGQGQSAFPSNYPNSIYHNCADVPAGFLGVTAAVWQQLINQNALPINYANLSTQTNYNLNASLNTQDLANSMLSTIQKTFVTSSVTNHYSSSASQSFRSPILGVNAKIGYQNYFNDFIGLAYYGIIKYNYAKAINQKVQQLSYGGGIDLLLDFITTYSNKNSPTGIQTKRNFSSSFGIFGGLRGLYNSYYVLNKVKGSGNLDVATGLNYRYKHSKYSVGISIPLIQRKASVVSNGGDYTNSFVFNEGASHFKVFFNYGWVF”, “failed”.
